In PMC4457833, “Effective Optimization of Antibody Affinity by Phage Display Integrated with High-Throughput DNA Synthesis and Sequencing Technologies” (PLoS ONE, 2015):

Biological target: T1, biotinylated recombinant dimeric ErbB2 ECD-Fc fusion protein (Homo sapiens, UniProt P04626, biotin (EZ-Link NHS-PEG4-Biotin labeling kit))
T1 construct: ErbB2, extracellular domain (ECD); Cloned in the mammalian expression vector pSectag 2A; also called Bio-ECD; source: Expi293, transiently expressed, purified on Protein A, then biotinylated
Test: SPR; Biacore 3000, 25°C; Bio-ECD (1 μg/ml in PBS) immobilised on SA sensor chip at about 300 RU; antibodies 10 μg/ml in PBS flowed at 30 μl/min, 15 min dissociation; regeneration 50 mM NaOH; triplicate
Conditions: both partners purified

B1: HuA21 scFv-Fc fusion antibody (humanized anti-ErbB2 antibody HuA21, wild type) (scFv, V domains shown)
VH: QVQLVQSGAEVVKPGASVKISCKASGYSFTGYFINWVKQNPGQRLEWIGHISSSYATSTYNQKFKGKATLTVDTSASTAYMELSSLRSEDTAVYYCVRSGNYEEYAMDYWGQGTLVTVSS
VL: DIVLTQSPDSLAVSLGERVTINCKSSQTLLYSNNQKNYLAWYQQKPGQSPKLLISWAFTRKSGVPDRFSGSGSGTDFTLTISSVQAEDVAVYYCQQYSNYPWTFGAGTKLEIK
notes: the HuA21 scFv gene is deposited in GenBank under KP749832; also called HuA21 (wt); wild-type HuA21; source: Expi293, transfected; conditioned medium (screening ELISA); purified by Protein A and Superdex G200 size-exclusion chromatography (SPR)
Kd: 4.03 nM
koff: 0.000262 s⁻¹
kon: 65000 M⁻¹ s⁻¹
